T1: DprA (DprANm) (Neisseria meningitidis MC58, UniProt Q9K1K1 1-397)
T1 sequence: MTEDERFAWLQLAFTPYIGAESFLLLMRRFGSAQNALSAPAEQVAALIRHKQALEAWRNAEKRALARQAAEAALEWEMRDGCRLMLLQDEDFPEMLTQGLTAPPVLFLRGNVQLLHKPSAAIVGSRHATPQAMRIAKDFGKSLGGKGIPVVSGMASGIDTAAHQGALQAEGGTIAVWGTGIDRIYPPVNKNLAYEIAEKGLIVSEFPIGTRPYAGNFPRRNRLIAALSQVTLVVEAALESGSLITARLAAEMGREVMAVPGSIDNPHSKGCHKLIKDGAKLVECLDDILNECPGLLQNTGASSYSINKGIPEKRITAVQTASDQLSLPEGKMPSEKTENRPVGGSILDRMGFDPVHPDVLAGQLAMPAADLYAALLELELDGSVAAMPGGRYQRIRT

B1: dT80 (ssDNA)
DNA: TTTTTTTTTTTTTTTTTTTTTTTTTTTTTTTTTTTTTTTTTTTTTTTTTTTTTTTTTTTTTTTTTTTTTTTTTTTTTTTT
B2: GTB25 (ssDNA)
DNA: GCCGTCTGAAAGCTCTAGGCCGTCTGAAACGTCAGGCCGTCTGAAAGCTCTAGGCCGTCTGAAACGTCAGGCCGTCTGAA
B3: single-stranded binding protein of Neisseria meningitidis (SSBNm), recombinant (natural protein, UniProt P66848 1-174, looked up)
chain: MSLNKVILIGRLGRDPEVRYMPNGEAVCNFSVATSETWNDRNGQRVERTEWHNITMYRKLAEIAGQYLKKGGLVYLEGRIQSRKYQGKDGIERTAYDIVANEMKMLGGRNENSGGAPYEEGYGQSQEAYQRPAQQSRQPASDAPSHPQEAPAAPRRQPVPAAAPVEDIDDDIPF
modifications: RED-NHS dye (Monolith NT Protein Labeling kit RED-NHS), degree of labelling 0.3 to 0.6, in the MST experiment only
notes: Theoretical size of the tetramer is printed as 83.4 kDa
B4: DNA processing chain A from Neisseria meningitidis MC58 (DprANm), recombinant, N-terminal 6xHis-tag (natural protein, UniProt Q9K1K1 1-397, looked up)
chain: T1 sequence
notes: DprA (DNA processing chain A) of Neisseria meningitidis strain MC58, locus NMB0116; the dprA gene was amplified with primers EH041 and EH042 and inserted into pET28b(+); Theoretical size of the dimer is printed as 89.6 kDa; also called Nm DprA; source: E. coli ER2566 carrying pMGM1 (pET28b(+)), purified (Ni-NTA, dialysed)
B5: C80 (ssDNA)
DNA: GCTGATCAACCCTACATGTGTAGGTAACCCTAACCCTAACCCTAAGGACAACCCTAGTGAAGCTTGTAACCCTAGGAGCT

Data set [1] deals with T1, DprA (DprANm). Briefly: EMSA; 30 nM DprA; very stable complex; EMSA: 40 mM Tris-HCl pH 8, 2.5 mM EDTA, 2 mM MgCl2, 100 mg/ml BSA (so in the source), 6% glycerol, 1 mM DTT; 30 min on ice; 5% native PAGE at 4 °C. The note with it: protein: recombinant; tags: N-terminal 6xHis (pET28b, cleavable); chain copies: 2; label: 32P. In general terms: A gel shift assay detects complexes by their altered migration in electrophoresis.

Data set [2] concerns the target T1, DprA (DprANm). Briefly: EMSA; 20-40 nM DprA; affinity similar to C80; EMSA: 40 mM Tris-HCl pH 8, 2.5 mM EDTA, 2 mM MgCl2, 100 mg/ml BSA (so in the source), 6% glycerol, 1 mM DTT; 30 min on ice; 5% native PAGE at 4 °C. The note with it: protein: recombinant; tags: N-terminal 6xHis (pET28b, cleavable); chain copies: 2; label: 32P end label.
Data set [3] deals with the molecule itself. Briefly: SEC-MALS; Superdex 200 10/300 GL with Malvern Viscotek UV, RI and static light-scattering detectors; calibrated with BSA; conditions similar to the co-size-exclusion assay; size from the main eluting peak. A general note: In gel filtration, larger molecules generally elute earlier.
In data set [4] the target is B4. The data set can be described thus: MST; RED-NHS-labelled SSBNm (23.6 nM) or SSBNmΔ8C (25.6 nM), DprANm titrated; 20 mM HEPES pH 7.5, 300 mM NaCl, 0.05 % Tween 20, 0.1 % Pluronic F-127, 0.1 % PEG 8000, 2 mM DTT; 22 °C, 20 % MST power, Monolith NT.115. The note with it: both partners purified.
Data set [5] concerns the target T1, DprA (DprANm). Briefly: EMSA; 30 nM DprA; complex dissociates easily during electrophoresis; EMSA: 40 mM Tris-HCl pH 8, 2.5 mM EDTA, 2 mM MgCl2, 100 mg/ml BSA (so in the source), 6% glycerol, 1 mM DTT; 30 min on ice; 5% native PAGE at 4 °C. The note with it: protein: recombinant; tags: N-terminal 6xHis (pET28b, cleavable); chain copies: 2; label: 32P.
The target in data set [6] is T1, DprA (DprANm). Briefly: EMSA; 0.5-80 nM DprA; stronger than dsDNA G80C80 (P=0.034); EMSA: 40 mM Tris-HCl pH 8, 2.5 mM EDTA, 2 mM MgCl2, 100 mg/ml BSA (so in the source), 6% glycerol, 1 mM DTT; 30 min on ice; 5% native PAGE at 4 °C. Conditions: protein: recombinant; tags: N-terminal 6xHis (pET28b, cleavable); chain copies: 2; label: 32P end label.

As for B1, the binding result in data set [1] was “binds”.
In the case of B2, the binding result in data set [2] is listed as “binds”.
B3: in data set [3], the stoichiometry N – broadly, a count of units in the complex or per binding partner – was 4. Besides, the Kd (usually the constant that tells how readily two partners part at equilibrium) in data set [4] is 1460 ± 544 nM.
With TTTTTTTTTTTTTTTTTTTTTTTTTTTTTTTTTTTTTTTT (ssDNA) [dT40], the binding result in data set [5] is “binds”.
As to B4, the “stoichiometry N” value in data set [3] is 2.
Take B5: the binding result in data set [6] is “binds”.

Values taken from paper PMC5817196, “DprA from Neisseria meningitidis: properties and role in natural competence for transformation” (Microbiology, 2017).
